Results reported in patent US11667697.
Changes are numbered by the printed parent chain.

B1: MPXV-27 (antibody, V domains shown)
VH: QVQLQQWGAGLLKPSETLSLTCDVYGGSFSGYYWSWIRQPPGKGLEWIGEINHSGSTTYTPSLRSRVTISVDTSKNQFSLKLSSVTAADTAVYYCARVLSGWLPFPNYYYYMDVWGKGTTVT
VL: DIQMTQSPSSLPASVGDRVTITCRASQDIRNNLGWYQQKPGKAPERLIYGTSNLQSGVPSRFSGSGSGTEFTLTISSLQPEDFATYYCLQHNSYPPTFGRGTKVEIK
B2: MPXV-61 (antibody, V domains shown)
V domain 1: QVQLVQSGAEVKKPGSSVKVSCKASGETFSRYAFSWVRLAPGQGLEWLGRIIPFIDIPNYAQKFQGRVTITADKSTSTAYMELSSLRSEDTAVYYCASSLPSTYYFGSGNYPWGNWLDPWGQGTLVTVSS
V domain 2: QSVVTQPPSVSAAPGQNVTISCSGSSSNIGNNYVSWYHQLPGTAPKLLIYDNDKRPSGIPDRFSGSKSGTSATLGITGLQTGDEADYYCGTWDSSLSEVVFGGGTQVTVL
B3: VACV-66 (antibody, V domains shown)
VH: QLQLQESGPGLVKPSETLSLTCTVSGDSISSNNYYWGWIRQPPGKGLEWIGSIYYSGSTYYNPSLKSRVTISVDTSKNQFSLKLSSVTAADTAVYYCARHRRVLLWFGEFQLWGQGTLVTVSS
VL: QSALTQPPSVSGAPGQRVTISCTGSSSNIGAGYDVHWYQQLPGTAPKLLIYGNINRPSGVPDRFSGSKSGTSASLAITGLQAEDEADYYCQSYDSSLSGALFGGGTQLTVL
B4: VACV-159 (antibody, V domains shown)
VH: QLQLQESGPGLVKPSETLSLTCTVSGGSISSSSYYWGWIRQPPGKGLEWIGSIYYRGSTYYNPSLKSRITISVDTSKNQFSLKLRSVTAADTAVYYCARHLRVLLWFGELLEWGQGTTVTVSS
VL: B3 VL with G32D, I54S, Y93H, A100Y, L101V, G104T, Q107K, L108V
B5: MPXV-96 (antibody, V domains shown)
VH: QVQLQQWGAGLLISSETLSLTCGVYGGSFSGYYWTWIRQPPGKGLEWIGEINYVGSTNYNPSLKSRVTMSVDTSKNHFSLSLSSVTAADTAVYYCARGLRGNSVCFDWGPGTLV
VL: ELVMTQSPATLSVSPGERASLSCRASQSVSSNLAWYQQKPGQAPRLLIYGASTRATGLPARFSGSGSGTEFTLTISSLQSEDFAIYYCQQYNNWPRTFGQGTKVDI
B6: VACV-304 (antibody, V domains shown)
VH: EVQLVESGGGLVQPGGSLRLSCVVSGFTFSNYWMSWVRQAPGKGLEWVANIKQDGSKKYYVDSVTGRFTISRDNAKNSLYLQMNSLRAEDTAVYYCATLNLELAVDAISEALKWGQGTLVTVSS
VL: SYELTQPPSVSVSPGQTARITCSGDALPKQFAYWYQQKPGQAPVVMIYKDSERPSGIPERFSGSSSGTTVTLTISGVQAEDEADYYCQSVDNSGTYEVFGGGTQLTVL
B7: VACV-117 (antibody, V domains shown)
VH: QVQLVQSGAEVKKPGASVKVSCKASGYTFTSYDINWVRQATGQGLEWLGWMNPNSGNTKSAQKVKGRVTMTRDTSISTAYMELSSLRSEDTAVYYCARTPFDDIGYYYWGQGTLVTVS
VL: DIVMTQSPLSLSVTPGEPASISCRSSQSLLHSNGYNYLDWYLQKPGQSPQLLIYLGSNRASGVPDRFIGSGSGTDFTLKISIVEAEDVGVYYCMQALQTPGAFGPGTKVDIK
B8: VACV-8 (antibody, V domains shown)
VH: QVQLQQWGAGLLKPSETLSLTCAGYGGSFSGYFWSWIRQPPGKGLEWIGEINHSGSTDYNPSLKSRVTISLDTSKTQFSLKLSSVTAADTAVYYCARVMTGITNYYYYYGMDVWGQGTTVTF
VL: DIQLTQSPSFLSASVGDRVTITCRASQDISSYLAWYQQKPGKAPKLLIYAASTLQSGVPSRFSGSESGTEFTLTISSLQPENFATYYCQHLNSYPRGYTFGQGTKVDIK
B9: VACV-136 (antibody, V domains shown)
V domain 1: QVTLKESGPVLVNPTETLTLTCTVSGFSLSNARMRVSWIRQPPGKALEWLAHIFSNDEKSYSTSLKSRLTISKDTSKSQVVLTMTNMDPVDTASYYCARMRGEYNSYYFDSWGQGTLVTVS
V domain 2: SYELTQPPSVSVSPGQTARITCSGDALPNQYAYWYQQKPGQAPVLVIYKDSERPSGIPERFSGSSSGTTVTLTISGVQAEDEADYYCQSADSSGTSVVFGGGTQVTV
B10: VACV-300 (antibody, V domains shown)
V domain 1: QVQLVQSGAEVKKPGSSVKVSCKASGGTFSSYAISWVRQAPGQGLEWMGGIIPIFGTANYAQKFQGRVTITADESTGTAYMELTSLRSEDTAIYYCARASEQWLASINWFDPWGQGTLVTVSS
V domain 2: QSALTQPASVSGSPGQSITISCTGTSSDVGSYNLVSWYQQHPGKAPKLMIYEVSKRPSGVSNRFSASKSGNTASLTISGLQAEDEADYYCCSYAGSSTLVFGGGTQVTVL
B11: VACV-303 (antibody, V domains shown)
VH: EVQLLESGGGLVQPGGSLRLSCAASGFTFSSYAMSWVRQAPGKGLEWVSAISGTGGNTYYADSVKGRFTISRDKSKNTLYLQMHSLRAEDTAVYYCATSLIWWLQSDYWGQGTLVTVSS
VL: DIQMTQSPSSLSASVGDRVTITCRASQSIASYLIWYQQKPGNAPKLLIYAASSLQSGVPSRFSGSGSGTDFTLTISSLQPEDFATYYCQQSYSTPQTFGQGTKVDIK
B12: VACV-154 (antibody, V domains shown)
VH: EVQLLESGGGLVQPGESLRLSCAASGFTLRNYAMSWVRQTPGKGLEWVSAISGSGGSTYYADSVKGRFTISRDTSKNTLYVQMNSLRAEDTAVYYCAKIRLDSSGYSGAFDIWGQGTRVTVSS
VL: SYELTQPPSVSVSPGQTARITCSGDALPKQYASWYQQKPGQAPVLVIYKDSERPSGIPERFSGSSSGTTVTLTISGVQAEDEADYYCQSADSSGTYPVVFGGGTQLTVL
B13: VACV-33 (antibody, V domains shown)
VH: QLQLQESGPGLVKPSETLSLTCTVSGGSISSGGYYWGWIRQPPGKGLEWIASIYYSGSTYYNPSLKSRVTISVDTSKTQFSLKLSSVTAADTAVYYCARQSSSTGGFHYWGQGTLVTVSS
VL: QSVLTQPPSVSGAPGQRVTISCTGSSSNIGAGYDVHWYQHLPGTAPKLLIYGNSNRPSGVPDRFSGSKSGTSASLAITGLQAEDEANYYCQSYDSSLSGREVFGGGTQLTVL
B14: MPXV-83 (antibody, V domains shown)
VH: QVQLVESGGGVVQPGRSLRLSCAASGFTFSSYSMHWVRQAPGKGLEWVAVISFDGRSNYYADSVRGRFTISRDNSKKTMYLQMNSLRLADTAVYYCARGGIGAPDPRNGLEVWGRGAPVTLSS
VL: DIQMIQSPSSLSASVGDRVTISCQATQDISNSVNWYQQKPGKAPKLLIYDASTLETGVPSRFSGGGSGTHFTFTISSLQPEDIATYYCQQFHSLPPTFGQGPKGISK
B15: MPXV-26 (antibody, V domains shown)
VH: QVQLVQSGGGLIQPGGSLRLSCVVSGFNVATNYMSWVRQAPGKGLEWVSVIYSGGSTYYADSVKGRFTISRDNSKNTVFLQMNSLRPEDTAAYYCAKGGGLGLDYWGQGTLVTVSS
VL: QSALTQPPSASGSPGQSVTITCTGSSSDVGGYNYVSWYQQHPGKAPKVVIYEVNKRPSGVPHRFSGSKSGNTASLTVSGLQAEDEADYYCSSYAGTETVAFGGGTKLTVL
B16: VACV-128 (antibody, V domains shown)
VH: EVQLVQSGAEVKKPGATVKISCKVSGYTFTDYYMHWVQQAPGKGLKWMGLLDPLDGETIYSEKFQGKVTITADTSTDTAYMELSSLRSEDTAVYYCARELTGYLNYWGQGTLVTVSS
VL: DIQMTQSPSSLSASVGDRVTITCRASPGICNYLAWYQHKPGKVPKLLIYAASTLQSGVPSRFTGVGSGTNFTLTINNLPPENVATYYCQKYNSAPHTFGQGTKVDIK
B17: MPXV-39 (antibody, V domains shown)
VH: QVQLQQWGAGLLKPSETLSLTCAIYGGSLSGQYWSWIRQPPGRGLEWIGEIHHKGRTNYNPSLKSRVTISIDTSQRQFSLRLTSVSAADTAVYYCASGNYRLGQGTLVTF
VL: DVVLTQSPLTLPVTLGQPASISCRSSQSLVYSDGDTYLNWFQQRPGQAPRRLIYKVSKRDFGVPDRFSGSGSGTDFTLRISRVEAEDVGVYYCMQGTHWPRTFGQGTQVDIK

Target: MPXV ortholog of D8 (monkeypox virus)
Test: lysate ELISA

Binder	EC50 [µg/mL]
B1	0.02
B2	0.004
B3	> 0.3
B4	> 14
B5	0.001
B6	0.1
B7	> 26
B8	0.06
B9	0.04

Target: MPXV ortholog of the A27 VACV protein (monkeypox virus)
Test: lysate ELISA

Binder	EC50 [µg/mL]
B10	> 0.68
B11	0.004
B12	0.02

Target: CPXV ortholog of L1 (cowpox virus)
Test: lysate ELISA

Binder	EC50 [µg/mL]
B13	0.06
B14	0.03
B15	0.05

Target: CPXV ortholog of D8 (cowpox virus)
Test: lysate ELISA

Binder	EC50 [µg/mL]
B1	0.02
B16	0.25
B2	0.009
B4	> 28
B5	0.003
B6	0.05
B7	0.01
B8	0.1
B9	0.05

Target: MPXV ortholog of A33 (monkeypox virus)
Test: lysate ELISA

Binder	EC50 [µg/mL]
B17	> 47

Target: CPXV ortholog of A27 (cowpox virus)
Test: lysate ELISA

Binder	EC50 [µg/mL]
B10	0.06
B11	0.004
B12	0.02

Target: MPXV ortholog of the A27 VACV protein (monkeypox virus)
Test: cell-based or functional assay

Binder	PRNT Emax, MPXV MV [%]	PRNT Emax, MPXV MV+C' [%]	PRNT IC50, MPXV MV [µg/mL]	PRNT IC50, MPXV MV+C' [µg/mL]
B11	51	64	25	15
B12	66	69	15	14

Target: CPXV ortholog of L1 (cowpox virus)
Test: cell-based or functional assay

Binder	PRNT Emax, CPXV MV [%]	PRNT Emax, CPXV MV+C' [%]	PRNT IC50, CPXV MV [µg/mL]	PRNT IC50, CPXV MV+C' [µg/mL]
B13	74	75	0.5	0.2
B14	69	78	0.2	0.1
B15	99	93	0.07	0.2

Target: MPXV ortholog of L1 (monkeypox virus)
Test: cell-based or functional assay

Binder	PRNT Emax, MPXV MV [%]	PRNT IC50, MPXV MV [µg/mL]	PRNT Emax, MPXV MV+C' [%]	PRNT IC50, MPXV MV+C' [µg/mL]
B13	50	70	–	–
B14	–	–	67	12.5
B15	96	3	97	6.2

Target: CPXV ortholog of D8 (cowpox virus)
Test: cell-based or functional assay

Binder	PRNT Emax, CPXV MV+C' [%]	PRNT IC50, CPXV MV+C' [µg/mL]
B1	75	0.08
B16	71	0.3
B6	79	0.1
B8	58	2
B9	75	0.2

Target: MPXV ortholog of A33 (monkeypox virus)
Test: cell-based or functional assay

Binder	PRNT Emax, MPXV EV+C' [%]	PRNT IC50, MPXV EV+C' [µg/mL]
B17	56	100

Target: VARV ortholog of L1 (variola virus)
Test: purified antigen ELISA

Binder	EC50 [µg/mL]
B13	0.02
B14	0.065
B15	0.02

Target: MPXV ortholog of the A27 VACV protein (monkeypox virus)
Test: purified antigen ELISA

Binder	EC50 [µg/mL]
B10	0.14
B11	0.02
B12	0.06

Target: VARV ortholog of A27 (variola virus)
Test: purified antigen ELISA

Binder	EC50 [µg/mL]
B10	0.79
B11	0.16
B12	0.3
